Results taken from patent US20230139516A1 (CEDARS SINAI MEDICAL CENTER, published 2023).

Assays:
c-Myc = target: T1, c-Myc (human, UniProt P01106-1 1-439, limits assumed); assay: PLA of endogenous proteins in HEK293T cells (FIG. 21B)
T1 construct: also called c-Myc oncoprotein

[1] = target: T2, receptor-interacting protein kinase 2 (RIPK2), endogenous (human, UniProt O43353 1-540); assay: PLA of endogenous proteins in HEK293T and parental PC cells (FIG. 20A-B)
T2 construct: Endogenous protein detected in cells with anti-RIPK2 antibodies (PLA, IP)
T2 sequence (O43353 whole entry): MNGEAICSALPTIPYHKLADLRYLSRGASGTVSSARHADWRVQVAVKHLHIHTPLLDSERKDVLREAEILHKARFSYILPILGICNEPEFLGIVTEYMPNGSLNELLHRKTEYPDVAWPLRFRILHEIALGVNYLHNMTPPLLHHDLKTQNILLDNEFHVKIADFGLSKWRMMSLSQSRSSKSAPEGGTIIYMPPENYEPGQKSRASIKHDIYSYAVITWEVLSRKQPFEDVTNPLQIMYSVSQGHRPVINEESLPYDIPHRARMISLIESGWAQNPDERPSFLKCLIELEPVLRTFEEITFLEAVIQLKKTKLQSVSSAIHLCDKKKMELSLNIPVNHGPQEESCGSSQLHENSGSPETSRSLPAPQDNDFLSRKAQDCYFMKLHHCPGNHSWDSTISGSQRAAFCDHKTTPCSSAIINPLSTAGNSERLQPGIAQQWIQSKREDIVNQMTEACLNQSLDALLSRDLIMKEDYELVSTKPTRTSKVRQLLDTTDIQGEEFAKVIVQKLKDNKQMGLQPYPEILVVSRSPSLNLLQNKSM

[2] = target: T3, 3×FLAG-tagged RIPK2 (RIPK2m4 with C-terminal 3×FLAG tag) (human, UniProt O43353 1-540); assay: IP of RIPK2 complexes, label-free MS (heatmap and LFQ histogram, FIG. 5A-B)
T3 construct: The same label (3×Flag-tagged RIPK2, expressed in HeLa cells) is the enzyme of the in vitro kinase assay; also called RIPK2-Flag; RIPK2m4-3×FLAG; not shown: 3×FLAG tag fused to the C-terminus
T3 sequence (O43353 whole entry, the tested form may be a part): as the sequence (O43353 whole entry) above

Measured: binding result

T1 sequence (P01106 16-454 limits assumed): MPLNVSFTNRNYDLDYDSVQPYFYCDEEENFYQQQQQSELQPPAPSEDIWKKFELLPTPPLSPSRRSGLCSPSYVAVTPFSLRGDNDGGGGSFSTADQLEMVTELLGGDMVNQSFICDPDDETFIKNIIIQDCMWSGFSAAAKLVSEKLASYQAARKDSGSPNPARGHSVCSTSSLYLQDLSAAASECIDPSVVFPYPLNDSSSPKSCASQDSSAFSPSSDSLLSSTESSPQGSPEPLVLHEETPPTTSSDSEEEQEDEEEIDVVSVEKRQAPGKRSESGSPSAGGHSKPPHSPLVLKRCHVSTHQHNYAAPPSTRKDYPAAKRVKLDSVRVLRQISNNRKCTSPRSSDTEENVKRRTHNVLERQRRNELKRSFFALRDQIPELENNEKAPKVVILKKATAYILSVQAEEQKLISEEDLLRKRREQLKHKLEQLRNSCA

B1: MKK7 (MAP2K7), endogenous (enzyme, human, UniProt O14733 2-419, looked up)
chain: AASSLEQKLSRLEAKLKQENREARRRIDLNLDISPQRPRPTLQLPLANDGGSRSPSSESSPQHPTPPARPRHMLGLPSTLFTPRSMESIEIDQKLQEIMKQTGYLTIGGQRYQAEINDLENLGEMGSGTCGQVWKMRFRKTGHVIAVKQMRRSGNKEENKRILMDLDVVLKSHDCPYIVQCFGTFITNTDVFIAMELMGTCAEKLKKRMQGPIPERILGKMTVAIVKALYYLKEKHGVIHRDVKPSNILLDERGQIKLCDFGISGRLVDSKAKTRSAGCAAYMAPERIDPPDPTKPDYDIRADVWSLGISLVELATGQFPYKNCKTDFEVLTKVLQEEPPLLPGHMGFSGDFQSFVKDCLTKDHRKRPKYNKLLEHSFIKRYETLEVDVASWFKDVMAKTESPRTSGVLSQPHLPFFR
binds: all assays above
